Source: PMC3159463
Where two headings read alike, the source gives them in different places.

Tests used:
[1] = target: pED208 TraM (plasmid pED208 (transfer-derepressed derivative of the Folac plasmid originally isolated from Salmonella typhi)) (UniProt P33788); test: crystal structure
pED208 TraM = target: T1, pED208 TraM (plasmid pED208 (IncFV, derivative of …, UniProt P33788 1-127)); test: EMSA
T1 sequence: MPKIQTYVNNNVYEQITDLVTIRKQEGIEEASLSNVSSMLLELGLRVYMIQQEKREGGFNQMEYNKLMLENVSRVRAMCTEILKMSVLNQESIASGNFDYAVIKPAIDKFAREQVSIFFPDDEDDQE

[2] = target: T2, pED208 TraM N-terminal domain (plasmid pED208, UniProt P33788 2-52); test: EMSA
T2 sequence: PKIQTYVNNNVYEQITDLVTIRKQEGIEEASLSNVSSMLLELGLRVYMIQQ

[3] = target: T3, TraM[F1-55:pED208 56-127] chimera (F plasmid / plasmid pED208 chimera, UniProt P10026 1-55+P33788:56-127, internal_change); test: EMSA
T3 sequence: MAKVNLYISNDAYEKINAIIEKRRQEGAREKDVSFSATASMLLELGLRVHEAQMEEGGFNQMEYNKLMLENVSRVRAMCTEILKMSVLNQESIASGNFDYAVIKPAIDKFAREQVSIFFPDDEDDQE

F TraM [4] = target: T4, F TraM (F plasmid, UniProt P10026 1-127); test: SEC-MALLS
T4 sequence: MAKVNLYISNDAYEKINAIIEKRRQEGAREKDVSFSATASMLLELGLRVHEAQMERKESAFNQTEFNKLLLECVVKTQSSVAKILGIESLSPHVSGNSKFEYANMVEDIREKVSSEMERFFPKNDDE

F TraM [5] = target: T4, F TraM; test: SEC-MALLS; remark: listed apart in the source

pED208 TraM (from UniProt P33788 1-127) (natural protein)
stoichiometry N [1]: 4

B1: pED208 sbmA 24 bp (pED 4site, palindromic) (dsDNA)
DNA 1: AGATTCGAATCTAGATTCGAATCT
DNA 2: AGATTCGAATCTAGATTCGAATCT
Kd (pED208 TraM): 4.8 ± 0.7 nM | binding signal [2]: ~500 fold lower affinity than full-length

B2: F sbmA 30 bp (dsDNA)
DNA 1: GATACCGCTAGGGGCGCTGCTAGCGGTGCG
DNA 2: CGCACCGCTAGCAGCGCCCCTAGCGGTATC
binding result [3]: binds | binding result (F TraM [4]): binds

B3: F sbmAB 75 bp (dsDNA)
DNA 1: TTATATTAGGGGTGCTGCTAGCGGCGCGGTGTGTTTTTTTATAGGATACCGCTAGGGGCGCTGCTAGCGGTGCGT
DNA 2: ACGCACCGCTAGCAGCGCCCCTAGCGGTATCCTATAAAAAAACACACCGCGCCGCTAGCAGCACCCCTAATATAA
binding result (F TraM [5]): binds
